± gives the uncertainty stated by the source.
B1: DnaJ homolog subfamily C member 5, residues 16 to 77; numbered along this chain, Q9H3Z4 (parent)
chain: LYHVLGLDKNATSDDIKKSYRKLALKYHPDKNPDNPEAADKFKEINNAHAILTDATKRNIYD

Variants of: B1
Assay: abundance fitness (aPCA) (normalised: wild type 0, dead -1); higher = more abundant; growth selection in yeast, the domain comes from the species named
Conditions: Homo sapiens

Variant | abundance fitness
LYHVLGLDKNATSDDIKKSYRKLALKYHPDFNPDNPEAADKFKEINNAHAILTDATKRNIYD [K31F] | -0.371 ± 0.092
LYHVLGLDKNATSDDIKKSYRKLALKYHPDENPDNPEAADKFKEINNAHAILTDATKRNIYD [K31E] | -0.116 ± 0.11
LYHVLGLDKNATSDDIKKSYRKLALKYHPDWNPDNPEAADKFKEINNAHAILTDATKRNIYD [K31W] | -0.626 ± 0.11
LYHVLGLDKNATSDDIKKSYRKLALKYHPDANPDNPEAADKFKEINNAHAILTDATKRNIYD [K31A] | -0.065 ± 0.085
LYHVLGLDKNATSDDIKKSYRKLALKYHPDNNPDNPEAADKFKEINNAHAILTDATKRNIYD [K31N] | -0.452 ± 0.18
LYHVLGLDKNATSDDIKKSYRKLALKYHPDPNPDNPEAADKFKEINNAHAILTDATKRNIYD [K31P] | -0.379 ± 0.16
LYHVLGLDKNATSDDIKKSYRKLALKYHPDDNPDNPEAADKFKEINNAHAILTDATKRNIYD [K31D] | -0.118 ± 0.14
LYHVLGLDKNATSDDIKKSYRKLALKYHPDINPDNPEAADKFKEINNAHAILTDATKRNIYD [K31I] | -0.06 ± 0.16
LYHVLGLDKNATSDDIKKSYRKLALKYHPDMNPDNPEAADKFKEINNAHAILTDATKRNIYD [K31M] | -0.521 ± 0.17
LYHVLGLDKNATSDDIKKSYRKLALKYHPDHNPDNPEAADKFKEINNAHAILTDATKRNIYD [K31H] | -0.195 ± 0.17
LYHVLGLDKNATSDDIKKSYRKLALKYHPDTNPDNPEAADKFKEINNAHAILTDATKRNIYD [K31T] | -0.139 ± 0.11
LYHVLGLDKNATSDDIKKSYRKLALKYHPDKNPHNPEAADKFKEINNAHAILTDATKRNIYD [D34H] | -0.411 ± 0.2
LYHVLGLDKNATSDDIKKSYRKLALKYHPDKNPFNPEAADKFKEINNAHAILTDATKRNIYD [D34F] | -1.01 ± 0.12
LYHVLGLDKNATSDDIKKSYRKLALKYHPDKNPANPEAADKFKEINNAHAILTDATKRNIYD [D34A] | -0.145 ± 0.074
LYHVLGLDKNATSDDIKKSYRKLALKYHPDKNPRNPEAADKFKEINNAHAILTDATKRNIYD [D34R] | -0.251 ± 0.074
LYHVLGLDKNATSDDIKKSYRKLALKYHPDKNPLNPEAADKFKEINNAHAILTDATKRNIYD [D34L] | -0.641 ± 0.07
LYHVLGLDKNATSDDIKKSYRKLALKYHPDKNPKNPEAADKFKEINNAHAILTDATKRNIYD [D34K] | -0.006 ± 0.1
LYHVLGLDKNATSDDIKKSYRKLALKYHPDKNPENPEAADKFKEINNAHAILTDATKRNIYD [D34E] | -0.079 ± 0.085
LYHVLGLDKNATSDDIKKSYRKLALKYHPDKNPINPEAADKFKEINNAHAILTDATKRNIYD [D34I] | -0.586 ± 0.17
LYHVLGLDKNATSDDIKKSYRKLALKYHPDKNPPNPEAADKFKEINNAHAILTDATKRNIYD [D34P] | -0.623 ± 0.1
LYHVLGLDKNATSDDIKKSYRKLALKYHPDKNPMNPEAADKFKEINNAHAILTDATKRNIYD [D34M] | -0.694 ± 0.12
LYHVLGLDKNATSDDIKKSYRKLALKYHPDKNPQNPEAADKFKEINNAHAILTDATKRNIYD [D34Q] | -0.206 ± 0.089

Variant | abundance fitness
LYHVLGLDKNATSDDIKKSYRKLALKYHPDKNPCNPEAADKFKEINNAHAILTDATKRNIYD [D34C] | -0.783 ± 0.12
LYHVLGLDKNATSDDIKKSYRKLALKYHPDKNPNNPEAADKFKEINNAHAILTDATKRNIYD [D34N] | -0.299 ± 0.086
LYHVLGLDKNATSDDIKKSYRKLALKYHPDKNPGNPEAADKFKEINNAHAILTDATKRNIYD [D34G] | 0.068 ± 0.073
LYHVLGLDKNATSDDIKKSYRKLALKYHPDKNGDNPEAADKFKEINNAHAILTDATKRNIYD [P33G] | 0.111 ± 0.052
LYHVLGLDKNATSDDIKKSYRKLALKYHPDKNDDNPEAADKFKEINNAHAILTDATKRNIYD [P33D] | -0.16 ± 0.14
LYHVLGLDKNATSDDIKKSYRKLALKYHPDKNNDNPEAADKFKEINNAHAILTDATKRNIYD [P33N] | -0.365 ± 0.22
LYHVLGLDKNATSDDIKKSYRKLALKYHPDKNRDNPEAADKFKEINNAHAILTDATKRNIYD [P33R] | 0.064 ± 0.053
LYHVLGLDKNATSDDIKKSYRKLALKYHPDKNHDNPEAADKFKEINNAHAILTDATKRNIYD [P33H] | -0.798 ± 0.28
LYHVLGLDKNATSDDIKKSYRKLALKYHPDKNCDNPEAADKFKEINNAHAILTDATKRNIYD [P33C] | -0.327 ± 0.11
LYHVLGLDKNATSDDIKKSYRKLALKYHPDKNFDNPEAADKFKEINNAHAILTDATKRNIYD [P33F] | -0.351 ± 0.18
LYHVLGLDKNATSDDIKKSYRKLALKYHPDKNIDNPEAADKFKEINNAHAILTDATKRNIYD [P33I] | -0.501 ± 0.16
LYHVLGLDKNATSDDIKKSYRKLALKYHPDKNADNPEAADKFKEINNAHAILTDATKRNIYD [P33A] | -0.032 ± 0.09
LYHVLGLDKNATSDDIKKSYRKLALKYHPDKNYDNPEAADKFKEINNAHAILTDATKRNIYD [P33Y] | -0.34 ± 0.09
LYHVLGLDKNATSDDIKKSYRKLALKYHPDKNKDNPEAADKFKEINNAHAILTDATKRNIYD [P33K] | 0.209 ± 0.14
LYHVLGLDKNATSDDIKKSYRKLALKYHPDKNLDNPEAADKFKEINNAHAILTDATKRNIYD [P33L] | -0.507 ± 0.075
LYHVLGLDKNATSDDIKKSYRKLALKYHPDKNTDNPEAADKFKEINNAHAILTDATKRNIYD [P33T] | -0.098 ± 0.076
LYHVLGLDKNATSDDIKKSYRKLALKYHPDKNEDNPEAADKFKEINNAHAILTDATKRNIYD [P33E] | -0.035 ± 0.085
LYHVLGLDKNATSDDIKKSYRKLALKYHPDKNMDNPEAADKFKEINNAHAILTDATKRNIYD [P33M] | -0.489 ± 0.1
LYHVLGLDKNATSDDIKKSYRKLALKYHPDKNQDNPEAADKFKEINNAHAILTDATKRNIYD [P33Q] | -0.063 ± 0.11
LYHVLGLDKNATSDDIKKSYRKLALKYHPDKNSDNPEAADKFKEINNAHAILTDATKRNIYD [P33S] | -0.121 ± 0.085
LYHVLGLDKNATSDDIKKSYRKLALKYHPDKNVDNPEAADKFKEINNAHAILTDATKRNIYD [P33V] | -0.225 ± 0.055

Source: the Human Domainome abundance scans (Beltran et al. 2025)
